Experimental data from article PMC7744550, “Structurally distinct telomere-binding proteins in Ustilago maydis execute non-overlapping functions in telomere replication, recombination, and protection”.

Assays:
[1] = target: T1, Tay1N274-FG (Ustilago maydis) (UniProt A0A0D1CTG7); assay: EMSA; conditions: 25 mM HEPES-KOH pH 7.5, 5% glycerol, 3 mM MgCl2, 0.1 mM EDTA, 1 mM DTT, 0.5 µg/µl BSA, 1-10 nM 32P probe, 22 °C 15 min; 6% native PAGE in 0.2x TBE
T1 sequence: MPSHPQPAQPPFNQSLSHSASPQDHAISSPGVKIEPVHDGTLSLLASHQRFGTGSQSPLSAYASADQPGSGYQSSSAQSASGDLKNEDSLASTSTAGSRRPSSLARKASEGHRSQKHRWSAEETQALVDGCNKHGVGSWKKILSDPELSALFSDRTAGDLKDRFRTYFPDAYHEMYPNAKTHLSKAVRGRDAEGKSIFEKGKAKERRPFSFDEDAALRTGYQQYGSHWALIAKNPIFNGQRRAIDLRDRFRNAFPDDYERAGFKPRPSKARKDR

[2] = target: T2, Trf2∆N-FG3 (Ustilago maydis) (UniProt A0A0D1E1Z3); assay: EMSA; conditions: 25 mM HEPES-KOH pH 7.5, 5% glycerol, 3 mM MgCl2, 0.1 mM EDTA, 1 mM DTT, 0.5 µg/µl BSA, 1-10 nM 32P probe, 22 °C 15 min; 6% native PAGE in 0.2x TBE
T2 sequence: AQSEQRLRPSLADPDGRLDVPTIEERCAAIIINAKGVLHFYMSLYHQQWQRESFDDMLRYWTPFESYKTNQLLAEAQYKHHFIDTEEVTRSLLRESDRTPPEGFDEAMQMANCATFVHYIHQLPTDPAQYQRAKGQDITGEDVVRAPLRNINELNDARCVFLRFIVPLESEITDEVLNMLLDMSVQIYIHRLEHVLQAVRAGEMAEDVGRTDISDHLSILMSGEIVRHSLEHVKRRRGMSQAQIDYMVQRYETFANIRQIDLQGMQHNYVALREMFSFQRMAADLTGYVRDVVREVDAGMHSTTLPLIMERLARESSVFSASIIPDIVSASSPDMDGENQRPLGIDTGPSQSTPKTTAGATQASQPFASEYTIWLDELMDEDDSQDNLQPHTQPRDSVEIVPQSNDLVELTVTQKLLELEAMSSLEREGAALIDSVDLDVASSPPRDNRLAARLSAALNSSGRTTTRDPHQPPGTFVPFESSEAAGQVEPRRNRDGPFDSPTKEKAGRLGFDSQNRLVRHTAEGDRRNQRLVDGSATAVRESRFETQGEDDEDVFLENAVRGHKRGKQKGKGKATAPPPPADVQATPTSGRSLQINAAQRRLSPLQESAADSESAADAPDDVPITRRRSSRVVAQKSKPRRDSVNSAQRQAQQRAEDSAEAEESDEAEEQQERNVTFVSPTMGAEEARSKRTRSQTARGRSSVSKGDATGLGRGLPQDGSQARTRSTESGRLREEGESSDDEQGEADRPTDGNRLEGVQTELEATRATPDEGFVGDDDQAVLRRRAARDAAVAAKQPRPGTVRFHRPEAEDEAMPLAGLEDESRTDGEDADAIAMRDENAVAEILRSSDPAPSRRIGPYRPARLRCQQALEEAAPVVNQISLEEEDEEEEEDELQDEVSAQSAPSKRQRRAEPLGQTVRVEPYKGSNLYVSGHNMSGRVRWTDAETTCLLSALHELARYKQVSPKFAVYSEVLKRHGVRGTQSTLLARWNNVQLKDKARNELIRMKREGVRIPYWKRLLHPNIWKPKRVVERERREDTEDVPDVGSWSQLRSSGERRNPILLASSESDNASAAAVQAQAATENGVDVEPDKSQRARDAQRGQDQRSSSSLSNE

[3] = target: T3, Tay1-FG (Ustilago maydis) (UniProt A0A0D1CTG7); assay: EMSA; conditions: 25 mM HEPES-KOH pH 7.5, 5% glycerol, 3 mM MgCl2, 0.1 mM EDTA, 1 mM DTT, 0.5 µg/µl BSA, 1-10 nM 32P probe, 22 °C 15 min; 6% native PAGE in 0.2x TBE
T3 sequence: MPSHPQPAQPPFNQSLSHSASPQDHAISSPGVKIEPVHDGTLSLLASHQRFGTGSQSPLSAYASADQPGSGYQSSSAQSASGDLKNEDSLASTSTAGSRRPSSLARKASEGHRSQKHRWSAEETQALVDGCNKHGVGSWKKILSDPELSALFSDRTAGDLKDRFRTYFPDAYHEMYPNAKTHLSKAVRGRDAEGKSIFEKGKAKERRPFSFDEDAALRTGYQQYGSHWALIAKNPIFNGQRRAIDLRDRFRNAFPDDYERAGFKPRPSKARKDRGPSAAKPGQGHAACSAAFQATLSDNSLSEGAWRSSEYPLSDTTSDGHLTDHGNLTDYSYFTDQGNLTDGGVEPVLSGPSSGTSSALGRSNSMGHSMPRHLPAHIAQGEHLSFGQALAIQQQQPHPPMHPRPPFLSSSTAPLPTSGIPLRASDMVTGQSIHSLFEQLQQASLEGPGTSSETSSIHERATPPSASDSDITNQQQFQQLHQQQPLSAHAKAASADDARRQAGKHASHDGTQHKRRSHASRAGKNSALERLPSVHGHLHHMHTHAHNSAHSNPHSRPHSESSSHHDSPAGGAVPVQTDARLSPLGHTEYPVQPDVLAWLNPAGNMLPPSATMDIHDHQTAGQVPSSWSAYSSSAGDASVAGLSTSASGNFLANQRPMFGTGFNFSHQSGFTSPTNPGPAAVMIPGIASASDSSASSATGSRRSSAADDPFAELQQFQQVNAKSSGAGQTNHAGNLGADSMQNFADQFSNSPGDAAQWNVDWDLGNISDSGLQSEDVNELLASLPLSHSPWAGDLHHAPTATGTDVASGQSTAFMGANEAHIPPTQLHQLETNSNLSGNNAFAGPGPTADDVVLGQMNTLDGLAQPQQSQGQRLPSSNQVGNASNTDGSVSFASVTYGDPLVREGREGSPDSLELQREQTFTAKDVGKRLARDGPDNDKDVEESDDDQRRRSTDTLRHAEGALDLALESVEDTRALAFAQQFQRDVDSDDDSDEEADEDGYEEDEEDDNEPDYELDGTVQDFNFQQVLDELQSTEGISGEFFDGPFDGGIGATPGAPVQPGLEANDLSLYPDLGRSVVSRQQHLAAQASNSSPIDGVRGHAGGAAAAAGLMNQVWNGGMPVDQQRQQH

Trf2∆N-FG3 = Trf2∆N-FG3 (Ustilago maydis, UniProt A0A0D1E1Z3 416-1528); assay: EMSA; 25 mM HEPES-KOH pH 7.5, 5% glycerol, 3 mM MgCl2, 0.1 mM EDTA, 1 mM DTT, 0.5 µg/µl BSA, 1-10 nM 32P probe, 22 °C 15 min; 6% native PAGE in 0.2x TBE; conditions: protein: recombinant; tags: C-terminal FG3 (His-SUMO cleaved by ULP1)
Tay1-FG = Tay1-FG (Ustilago maydis, UniProt A0A0D1CTG7 1-1127); assay: competition; unlabeled competitor; 25 mM HEPES-KOH pH 7.5, 5% glycerol, 3 mM MgCl2, 0.1 mM EDTA, 1 mM DTT, 0.5 µg/µl BSA, 1-10 nM 32P probe, 22 °C 15 min; 6% native PAGE in 0.2x TBE; conditions: protein: recombinant; tags: C-terminal FLAG (His-SUMO cleaved by ULP1); blunt

TTAGGGTTAGGGTTAGGGTTAGGG (double strand) [TTAGGG4 ds]
Kd [1]: 130 nM | Kd [2]: 20 nM | Kd [3]: 27 nM

Tay1-FG (natural protein)
helicase activity of Blm (12.5 nM) on a non-telomeric DNA substrate with Tay1 at 0, 10, 30 and 90 nM (Blm-FG (Ustilago maydis)): 2.5 fold

TTAGGGTTAGGGTTAGGGTTAGGG (ssDNA) [TTAGGG4 G-strand]
binding result (Trf2∆N-FG3): no binding

B1: CgTEL (dsDNA)
DNA 1: TGGGGTCTGGGTGCTG
DNA 2: CAGCACCCAGACCCCA
binding result (Tay1-FG): no binding
